Laboratory results reported in patent US20250171562A1.

B1: CIgG4E1A1(RS) (Fc fusion)
chain 1: GPPCPPCPAPEFLGGPSVFLFPPKPKDTLMISRTPEVTCVVVDVSQEDPEVQFNWYVDGVEVHNAKTKPREEQFNSTYRVVSVLTVLHQDWLNGKEYKCKVSNKGLPSSIEKTISKAKGQPREPQVYTLPPCQEEMTKNQVSLWCLVKGFYPSDIAVEWESNGQPENNYKTTPPVLDSDGSFFLYSRLTVDKSRWQEGNVFSCSVMHEALHNHYTQKSLSLSLGKRSDVQLQESGGGLVQAGGSLRLSCLASGRTFTTTSGYNMGWFRQAPGKEREFVAGIKWVSGSNRAYAESVKGRFTISRDNAKNTVYLQMNSLKPEDTAVYYCAAATGQSYVPIREYEYVYWGQGTQVTVS
chain 2: GPPCPPCPAPEFLGGPSVFLFPPKPKDTLMISRTPEVTCVVVDVSQEDPEVQFNWYVDGVEVHNAKTKPREEQFNSTYRVVSVLTVLHQDWLNGKEYKCKVSNKGLPSSIEKTISKAKGQPREPQVCTLPPSQEEMTKNQVSLSCAVKGFYPSDIAVEWESNGQPENNYKTTPPVLDSDGSFFLVSRLTVDKSRWQEGNVFSCSVMHEALHNHYTQKSLSLSLGKRSEVQLLESGGGLVQPGGSLRLSCAASGFTFGNYDMAWVRQAPGKRPEWVSSIDTGGDITHYADSVKGRFTISRDNAKNTLYLQMNSLRPEDTAVYWCATDEEYALGPNEFDYYGQGTLVTVSS
B2: CIgG4E1A1(G4S)1 (Fc fusion)
chain 1: GPPCPPCPAPEFLGGPSVFLFPPKPKDTLMISRTPEVTCVVVDVSQEDPEVQFNWYVDGVEVHNAKTKPREEQFNSTYRVVSVLTVLHQDWLNGKEYKCKVSNKGLPSSIEKTISKAKGQPREPQVYTLPPCQEEMTKNQVSLWCLVKGFYPSDIAVEWESNGQPENNYKTTPPVLDSDGSFFLYSRLTVDKSRWQEGNVFSCSVMHEALHNHYTQKSLSLSLGKGGGGSDVQLQESGGGLVQAGGSLRLSCLASGRTFTTTSGYNMGWFRQAPGKEREFVAGIKWVSGSNRAYAESVKGRFTISRDNAKNTVYLQMNSLKPEDTAVYYCAAATGQSYVPIREYEYVYWGQGTQVTVS
chain 2: GPPCPPCPAPEFLGGPSVFLFPPKPKDTLMISRTPEVTCVVVDVSQEDPEVQFNWYVDGVEVHNAKTKPREEQFNSTYRVVSVLTVLHQDWLNGKEYKCKVSNKGLPSSIEKTISKAKGQPREPQVCTLPPSQEEMTKNQVSLSCAVKGFYPSDIAVEWESNGQPENNYKTTPPVLDSDGSFFLVSRLTVDKSRWQEGNVFSCSVMHEALHNHYTQKSLSLSLGKGGGGSEVQLLESGGGLVQPGGSLRLSCAASGFTFGNYDMAWVRQAPGKRPEWVSSIDTGGDITHYADSVKGRFTISRDNAKNTLYLQMNSLRPEDTAVYWCATDEEYALGPNEFDYYGQGTLVTVSS
B3: CIgG4E1A1(G4S)2 (Fc fusion)
chain 1: GPPCPPCPAPEFLGGPSVFLFPPKPKDTLMISRTPEVTCVVVDVSQEDPEVQFNWYVDGVEVHNAKTKPREEQFNSTYRVVSVLTVLHQDWLNGKEYKCKVSNKGLPSSIEKTISKAKGQPREPQVYTLPPCQEEMTKNQVSLWCLVKGFYPSDIAVEWESNGQPENNYKTTPPVLDSDGSFFLYSRLTVDKSRWQEGNVFSCSVMHEALHNHYTQKSLSLSLGKGGGGSGGGGSDVQLQESGGGLVQAGGSLRLSCLASGRTFTTTSGYNMGWFRQAPGKEREFVAGIKWVSGSNRAYAESVKGRFTISRDNAKNTVYLQMNSLKPEDTAVYYCAAATGQSYVPIREYEYVYWGQGTQVTVS
chain 2: GPPCPPCPAPEFLGGPSVFLFPPKPKDTLMISRTPEVTCVVVDVSQEDPEVQFNWYVDGVEVHNAKTKPREEQFNSTYRVVSVLTVLHQDWLNGKEYKCKVSNKGLPSSIEKTISKAKGQPREPQVCTLPPSQEEMTKNQVSLSCAVKGFYPSDIAVEWESNGQPENNYKTTPPVLDSDGSFFLVSRLTVDKSRWQEGNVFSCSVMHEALHNHYTQKSLSLSLGKGGGGSGGGGSEVQLLESGGGLVQPGGSLRLSCAASGFTFGNYDMAWVRQAPGKRPEWVSSIDTGGDITHYADSVKGRFTISRDNAKNTLYLQMNSLRPEDTAVYWCATDEEYALGPNEFDYYGQGTLVTVSS
B4: CIgG4E1A1(G4S)3 (Fc fusion)
chain 1: GPPCPPCPAPEFLGGPSVFLFPPKPKDTLMISRTPEVTCVVVDVSQEDPEVQFNWYVDGVEVHNAKTKPREEQFNSTYRVVSVLTVLHQDWLNGKEYKCKVSNKGLPSSIEKTISKAKGQPREPQVYTLPPCQEEMTKNQVSLWCLVKGFYPSDIAVEWESNGQPENNYKTTPPVLDSDGSFFLYSRLTVDKSRWQEGNVFSCSVMHEALHNHYTQKSLSLSLGKGGGGSGGGGSGGGGSDVQLQESGGGLVQAGGSLRLSCLASGRTFTTTSGYNMGWFRQAPGKEREFVAGIKWVSGSNRAYAESVKGRFTISRDNAKNTVYLQMNSLKPEDTAVYYCAAATGQSYVPIREYEYVYWGQGTQVTVS
chain 2: GPPCPPCPAPEFLGGPSVFLFPPKPKDTLMISRTPEVTCVVVDVSQEDPEVQFNWYVDGVEVHNAKTKPREEQFNSTYRVVSVLTVLHQDWLNGKEYKCKVSNKGLPSSIEKTISKAKGQPREPQVCTLPPSQEEMTKNQVSLSCAVKGFYPSDIAVEWESNGQPENNYKTTPPVLDSDGSFFLVSRLTVDKSRWQEGNVFSCSVMHEALHNHYTQKSLSLSLGKGGGGSGGGGSGGGGSEVQLLESGGGLVQPGGSLRLSCAASGFTFGNYDMAWVRQAPGKRPEWVSSIDTGGDITHYADSVKGRFTISRDNAKNTLYLQMNSLRPEDTAVYWCATDEEYALGPNEFDYYGQGTLVTVSS
B5: NIgG4E2A1(RS) (Fc fusion)
chain 1: DVQLQESGGGLVQAGGSLRLSCAASGRTISRYAVGWFRRPPAKEREFIGINWSGGSTTYADSAEGRFIISRDNAKNTVYLQMNSLKPEDTAVYYCAVPSVLVQGGISNPSQYDYWGQGTQVTVSRSGPPCPPCPAPEFLGGPSVFLFPPKPKDTLMISRTPEVTCVVVDVSQEDPEVQFNWYVDGVEVHNAKTKPREEQFNSTYRVVSVLTVLHQDWLNGKEYKCKVSNKGLPSSIEKTISKAKGQPREPQVYTLPPCQEEMTKNQVSLWCLVKGFYPSDIAVEWESNGQPENNYKTTPPVLDSDGSFFLYSRLTVDKSRWQEGNVFSCSVMHEALHNHYTQKSLSLSLGK
chain 2: EVQLLESGGGLVQPGGSLRLSCAASGFTFGNYDMAWVRQAPGKRPEWVSSIDTGGDITHYADSVKGRFTISRDNAKNTLYLQMNSLRPEDTAVYWCATDEEYALGPNEFDYYGQGTLVTVSSRSGPPCPPCPAPEFLGGPSVFLFPPKPKDTLMISRTPEVTCVVVDVSQEDPEVQFNWYVDGVEVHNAKTKPREEQFNSTYRVVSVLTVLHQDWLNGKEYKCKVSNKGLPSSIEKTISKAKGQPREPQVCTLPPSQEEMTKNQVSLSCAVKGFYPSDIAVEWESNGQPENNYKTTPPVLDSDGSFFLVSRLTVDKSRWQEGNVFSCSVMHEALHNHYTQKSLSLSLGK
B6: NIgG4E2A1(G4S)1 (Fc fusion)
chain 1: DVQLQESGGGLVQAGGSLRLSCAASGRTISRYAVGWFRRPPAKEREFIGINWSGGSTTYADSAEGRFIISRDNAKNTVYLQMNSLKPEDTAVYYCAVPSVLVQGGISNPSQYDYWGQGTQVTVSGGGGSGPPCPPCPAPEFLGGPSVFLFPPKPKDTLMISRTPEVTCVVVDVSQEDPEVQFNWYVDGVEVHNAKTKPREEQFNSTYRVVSVLTVLHQDWLNGKEYKCKVSNKGLPSSIEKTISKAKGQPREPQVYTLPPCQEEMTKNQVSLWCLVKGFYPSDIAVEWESNGQPENNYKTTPPVLDSDGSFFLYSRLTVDKSRWQEGNVFSCSVMHEALHNHYTQKSLSLSLGK
chain 2: EVQLLESGGGLVQPGGSLRLSCAASGFTFGNYDMAWVRQAPGKRPEWVSSIDTGGDITHYADSVKGRFTISRDNAKNTLYLQMNSLRPEDTAVYWCATDEEYALGPNEFDYYGQGTLVTVSSGGGGSGPPCPPCPAPEFLGGPSVFLFPPKPKDTLMISRTPEVTCVVVDVSQEDPEVQFNWYVDGVEVHNAKTKPREEQFNSTYRVVSVLTVLHQDWLNGKEYKCKVSNKGLPSSIEKTISKAKGQPREPQVCTLPPSQEEMTKNQVSLSCAVKGFYPSDIAVEWESNGQPENNYKTTPPVLDSDGSFFLVSRLTVDKSRWQEGNVFSCSVMHEALHNHYTQKSLSLSLGK
B7: NIgG4E2A1(G4S)2 (Fc fusion)
chain 1: DVQLQESGGGLVQAGGSLRLSCAASGRTISRYAVGWFRRPPAKEREFIGINWSGGSTTYADSAEGRFIISRDNAKNTVYLQMNSLKPEDTAVYYCAVPSVLVQGGISNPSQYDYWGQGTQVTVSGGGGSGGGGSGPPCPPCPAPEFLGGPSVFLFPPKPKDTLMISRTPEVTCVVVDVSQEDPEVQFNWYVDGVEVHNAKTKPREEQFNSTYRVVSVLTVLHQDWLNGKEYKCKVSNKGLPSSIEKTISKAKGQPREPQVYTLPPCQEEMTKNQVSLWCLVKGFYPSDIAVEWESNGQPENNYKTTPPVLDSDGSFFLYSRLTVDKSRWQEGNVFSCSVMHEALHNHYTQKSLSLSLGK
chain 2: EVQLLESGGGLVQPGGSLRLSCAASGFTFGNYDMAWVRQAPGKRPEWVSSIDTGGDITHYADSVKGRFTISRDNAKNTLYLQMNSLRPEDTAVYWCATDEEYALGPNEFDYYGQGTLVTVSSGGGGSGGGGSGPPCPPCPAPEFLGGPSVFLFPPKPKDTLMISRTPEVTCVVVDVSQEDPEVQFNWYVDGVEVHNAKTKPREEQFNSTYRVVSVLTVLHQDWLNGKEYKCKVSNKGLPSSIEKTISKAKGQPREPQVCTLPPSQEEMTKNQVSLSCAVKGFYPSDIAVEWESNGQPENNYKTTPPVLDSDGSFFLVSRLTVDKSRWQEGNVFSCSVMHEALHNHYTQKSLSLSLGK
B8: NIgG4E2A1(G4S)3 (Fc fusion)
chain 1: DVQLQESGGGLVQAGGSLRLSCAASGRTISRYAVGWFRRPPAKEREFIGINWSGGSTTYADSAEGRFIISRDNAKNTVYLQMNSLKPEDTAVYYCAVPSVLVQGGISNPSQYDYWGQGTQVTVSGGGGSGGGGSGGGGSGPPCPPCPAPEFLGGPSVFLFPPKPKDTLMISRTPEVTCVVVDVSQEDPEVQFNWYVDGVEVHNAKTKPREEQFNSTYRVVSVLTVLHQDWLNGKEYKCKVSNKGLPSSIEKTISKAKGQPREPQVYTLPPCQEEMTKNQVSLWCLVKGFYPSDIAVEWESNGQPENNYKTTPPVLDSDGSFFLYSRLTVDKSRWQEGNVFSCSVMHEALHNHYTQKSLSLSLGK
chain 2: EVQLLESGGGLVQPGGSLRLSCAASGFTFGNYDMAWVRQAPGKRPEWVSSIDTGGDITHYADSVKGRFTISRDNAKNTLYLQMNSLRPEDTAVYWCATDEEYALGPNEFDYYGQGTLVTVSSGGGGSGGGGSGGGGSGPPCPPCPAPEFLGGPSVFLFPPKPKDTLMISRTPEVTCVVVDVSQEDPEVQFNWYVDGVEVHNAKTKPREEQFNSTYRVVSVLTVLHQDWLNGKEYKCKVSNKGLPSSIEKTISKAKGQPREPQVCTLPPSQEEMTKNQVSLSCAVKGFYPSDIAVEWESNGQPENNYKTTPPVLDSDGSFFLVSRLTVDKSRWQEGNVFSCSVMHEALHNHYTQKSLSLSLGK

Target: mixture of three Der p 2 specific recombinant human IgE clones H10, H12, P4E (human) (UniProt P01854)
Sequence (P01854 other isoform, or with tags, fused parts or gaps): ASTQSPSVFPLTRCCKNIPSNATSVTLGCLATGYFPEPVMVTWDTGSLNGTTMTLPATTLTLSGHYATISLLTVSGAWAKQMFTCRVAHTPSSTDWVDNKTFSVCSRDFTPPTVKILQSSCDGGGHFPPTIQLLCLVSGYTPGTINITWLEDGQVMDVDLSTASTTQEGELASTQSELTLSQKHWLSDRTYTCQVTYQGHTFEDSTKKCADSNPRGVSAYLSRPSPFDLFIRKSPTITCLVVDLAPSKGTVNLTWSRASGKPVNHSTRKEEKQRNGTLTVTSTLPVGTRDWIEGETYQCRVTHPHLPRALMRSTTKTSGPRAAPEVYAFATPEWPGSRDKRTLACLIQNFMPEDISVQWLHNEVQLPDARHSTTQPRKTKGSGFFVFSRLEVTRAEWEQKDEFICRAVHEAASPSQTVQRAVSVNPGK
Assay: RBL-SX38 IgE displacement, FACS

Binder | Max effect/effect 1 µM | EC50
B1 | 9% | –
B2 | 95% | 96.1 nM
B3 | 99% | 35.6 nM
B4 | 99% | 24.1 nM
B5 | 97% | 2 nM
B6 | 95% | 2.3 nM
B7 | 98% | 1.9 nM
B8 | 97% | 2 nM
